# Laboratory results from the DeepSol protein solubility set.
# Assay: soluble on expression in E. coli; label from the status in PepcDB or PDB records
row,Sequence,soluble on expression in E. coli
1,MMEITRETMSFTSTTPSARAPLGGRTTGNVTSQDRMLKIVTEMRSGAGSGLSPFGQNAASTIRDSREREKKEMSDLNDRLASYIEKVRFLEAQNRKLAADLDALRSKWGKDTHNIRNMYEGELVDAQKLIDETNKQRKDMEGQLKKMQDELAEMRRKLEDATKGREQDRAKIDALLVTLSNLEAEISLLKRRIAQLEDEVKRIKQENQRLLSELQRARTDLDQETLNRIDYQNQVQTLLEEIDFLRRVHDNEIKELQTLASRDTTPENREFFKNELSSAIRDIREEYDQVNNVHRNDMESWYRLKVQEIQTQSARQNMEQGYAKEEVKRLRTQLSDLRGKLADLESRNSLLEKQIQELNYQLEDDQRSYEAALNDRDSQIRKMREECQALMVELQMLLDTKQTLDAEIAIYRKMLEGEENRAGLKQLVEQVVKTHAITQETDTETMRVVKGETASRQSFQRSAKGNVSIHEASPDGKFIVLQNTHRAKDEAIGEWKLKRRIDGKRENVYTLPRDFVLRAGKTLKIFARNQGVASPPDQLVYDAEDSFGSGNNVQTILFNKEGEERATHIQRQSTA,not soluble
2,MVSYKLTYFNGRGAGEVSRQIFAYAGQQYEDNRVTQEQWPALKETCAAPFGQLPFLEVDGKKLAQSHAIARFLAREFKLNGKTAWEEAQVNSLADQYKDYSSEARPYFYAVMGFGPGDVETLKKDIFLPAFEKFYGFLVNFLKASGSGFLVGDSLTWIDLAIAQHSADLIAKGGDFSKFPELKAHAEKIQAIPQIKKWIETRPVTPF,soluble
3,MSLEYENEIMDLINDYDMLRVLKHFTVAHVDYAKNITRYTEIPQIRVRAYLERLKEMGLLDYYTNTSIKRTEAKLKKSAEVHKHHTYYQINKKAEAVLKEITPKLYVKVLGKEKLELLCSRKVRKTSPDRCTGLQAMGLIDKCFDLTELGREVFEAALRMQAIRCQDEGHHHHHH,soluble
4,MGSDKIHHHHHHMSTVDPVEQLLANGLKNLWYPICPVGFIEDKPVSLRRLGYKLAVWRDTDGTLHALEDHCPHRGAPLSRGVNLGDRLQCPYHGVEVRCDGVTARVPGSPGCKLEGSQATRFFHITEAAGAVWLYNSAGNVEEAPPLVLPEQLTDPEFSHFLCYTEWRGDYRYVLDNVMDPMHGTYLHKQSHSMSEGESQARFVTRDTDTGFIFEKDGQRGVNFDWTEWADTGMHWMRLEIPYPKTGGPGGNFHIVGSYTPIARDLCAVFHWRCRPLTGWQRDTWRFLYRNRLEARHWAVLEQDREMLEFMEPDANQRENLYQHDLGLVRLRRHLKNLAKAQLELIEARQL,not soluble
5,MTGSNSHITILTLNINGLNSAIKRHRLASWIKSQDPSVCCIQETHLTCRDTHRLKIKGWRKIYQANGKQKKAGVAILVSDKTDFKPTKIKRDKEGHYIMVKGSIQQEELTILNIYAPNTGAPRFIKQVLSDLQRDLDSHTLIMGDFNTPLSTLDRSTRQKVNKDTQELNSALHQADLIDIYRTLHPKSTEYTYVRVRDGHVSQSKIDHIVGSKALLSKCKRTEIITNYLSDHSAIKLELR,soluble
6,MGSDKIHHHHHHMLMKSSTEQIRRQNSALVLAALRVEQAMSHTQIAAVTGLASATVTAITSELEQAGVIERHEQQIAGARGRPRVALSRRRDFAYVMSVRISSDRLNYTLSDFRGKLMDRFEEPRPLDVSAAGFIEGLGRNLARLASRSKLEPEKVAVLSVSSKGIVDAGGARLLWTPVFGQQPLDLKAALGDFEKAMALLSNETLLVAHGLSRRMDAQDGTFRGLIALSLGHSIGLGIARPMPDGTVAVSAPNFGHMLNTADSKLCRCGARGCIEASAGFYGILRMAFEVRPDTIPAKFVPITEMDKIALSARQGNRMAQYAFRQAGLALGQGLSRVFSLHETLPVTITGPGTRYYDLLAQGLEEGLAQSLQVRLDGAPPISLVGDEADLVQEGHVDHALRAIDERLFGGG,not soluble
7,APYRMAYIKKDPVDDARGSTNPFVRIPELSDEDGLIVARGEYVYCLLNLFPYNSGHMMVVPYRQEPNLEDLTAEEISELFAFGQAAIKVVKSVSRPDAINVGFNLGRASGGSVGEHLHMHIVPRWSGDANFMTVIDGTKVLPQLLRKTRSLLAQAWNDMDG,not soluble
8,MSLNAPSNAPWLSHYDEGIPSSLAPYPRVTLPDILREAARKHPEDPALLFLGNTISYGELERESNAFAAALHASEVRKGNRVAVLLPNSPQMIIAEFGIWKAGGIAVMLNPLWTEHELERAIDECEAEIAVVLAPFYEKINHLRSRTSLKTVVITDLHDYFPAAMRNASPANGAVATMLQSSDLRMPAMIESYSGSQTPAVEVSPKDPALFIFSGGTTGKPKCAIGRHEASVMNGMQVDAWFRPVLGSDRVPVMLNLPLHHVYPQVAIIGYGFVTRSPLVLIPDPRDFELLIKTIKQYKVGLLPGIPTLFNALAAHPLLKEAPGSLDSLKLIISAAAPLHNKTRRRFKELTGATIIDAYGLTEAMVSPVCQPLNGIRKNGSVGLPVPDVEMRIVDADTGIEVLPSMEIGEIVIRSPQLMTGYWKNPEETAEVLRDGWLYTGDLGYIDDDGYLYIVDRKKDVIKPSGFQVWPSEVEEVIAMHPAVLETGVAGVPDDYQSEAVKAWVVLHKGHSLDAEQLKNWCRQTLAPYKVPKHIEFCEQLPKSALGKVLRQALVEQHLTSEGHHHHHH,soluble
9,MKENFQIHIWLGLLLCLLGMSCSDDTPAKGDDPGNGNTELEVNEWIESVMRSDYLWNNDIPAQNKLDFSADPQTFFRSMLSLKDGKTRNGKHLYYYSYMEKNKDYKARTSIDADDTYGMEFTLFNVVNDSNQPLGYYYARILYVLPNSPASSAGLERGDWIVGVKGRNNINSDNYGILLNGDRTQWLVKRGDTEVRTIDIEASRAVEDNPLFYHNVYTRGDKKIGYLVYNHFTSGPNGYSDRTYDEEMKKIFAGFQAQGVNEFVLDLRYNGGGYENSANMLAGLLIPEASRKKVFAVFSDNKGQSYSNDFCVETKGTAGYLKLNSNRIYILTSQSTASSSEVVINSLNPFMDVILIGELTEGKNVGMEMQKNDKYEWIYWPITLRVTNAVNDDYSAGFKPDIEWNEYDLTQNPTDALLPLGDPDEFMLGKAISLITGINRSARSMNTLGIFSKCL,not soluble
10,MSLVIITDATEADLDQIFQIETESFEDPYPYSLLRAYLFLANKLYLVAKQREKVVGYIIGIIQYGYRGHIVSIAVEPIYRKQGIGAKLLNEIEERFKLNGARYSYLEVNTNNLSAISFYRANGYLIMYVRKNYYGRDKHAFVMVKNLYEGHHHHHH,soluble
11,MGKALLIVNPSSGKEKGKTYQGKTEEVLKKRYDEVEVRLTEKAGDATEFASWASEQGFDAVIAMGGDGTLNETINGLAIHEKRPDFGFIPLGTVNDLARSVGIPLKPEKAIQALEKAKAIPMDIGRIGDQ,not soluble
12,NGFQKEMRTRILGMVPHATISAAQPLDDWQTVANAALRHREVVGAAPFAELQGMLSYKGNMLPVLVNGIDPQEERKVSIVGEHIVQGSLDDLKPGEFGIVLGEITARRFHVNVGDKLTLIVPEATSAPGGITPRMQRFTIVALFKVGAELDNSLALIDIADAGQLLRLQPGQVPSVRLELKDLYQSPQVAAKVVKELGQGFRSSDWTRTQGSLFNAMKMEKT,not soluble
13,SASFQRKGLQARILSTEEEEKLKRDQALVSAFKQQKLEKEAQKNWDLFYKRNSTNFFKDRHWTTREFEELRSCREYEGQKLTLLEAGCGVGNCLFPLLEEDLNLFAYACDFSPRAVDYVKQHPLYNAERCKVFQCDLTRDDLLDHVPPESVDAVTLIFVLSAVHPEKMRLVLLNVYKVLKPGRSVLFRDYGLNDHAMLRFKAGSKLGENFYVRQDGTRSYFFTDEFLAQLFVDAGYEEVVNEYVFRETVNKKEGLCVPRVFLQSKFRKPPKDPAPTSDSASL,soluble
14,MGSDKIHHHHHHDSFKTKSGKELTITFIKHGSLMLTYDNHSIQVDPVSEYADYTTFPKADIILITHEHGDHLDPKAIQAVEKSDTEIIANENSQKKLGKGKVLKNGDTDTSISYMKIEAVPAYNTTPGRDKYHPRHRDNGYILTFDGLRVYIAGDTEDIPEMKDLKDIDIAFLPVNQPYTMTVSQAAKAARMFSPKILYPYHYGDTKIGELKDALKDSGIDVRIRELQ,not soluble
15,MSLAIRNVVFDVGNVIVKWAPQDIAQLTFGEGEESAFMATAVFKSEFWRDLNKGKYTEAEVKRALHQQLGLSSDTLEQLFFHIKNTQVLLPGTLQLMDDLLKAGYRLYALTDNVNEIVAYLKKQYGFWPKFTGAVVSSECGLLKPDPAIYQHLADSQRILPQESVFMDDMPANVEGARQQGFHAIQFVDAHQARVQLAQMGLHFKGQHFGEGHHHHHH,soluble
